Data taken from patent US20190218304A1 (INNATE PHARMA, published 2019).

Columns and labels:
[1] = biological target: T1, human CD39 expressed on cells (human, UniProt P49961 1-510); assay: flow cytometry on Hek-293T cells transfected with wild-type CD39 (unstained cells, US: 10,3) [panel WT]
T1 construct: On CHO transfectants, HEK-293T transfectants (wild type), Ramos lymphoma cells or monocyte-derived dendritic cells, as named under assay; also called huCD39; CHO-huCD39
T1 sequence: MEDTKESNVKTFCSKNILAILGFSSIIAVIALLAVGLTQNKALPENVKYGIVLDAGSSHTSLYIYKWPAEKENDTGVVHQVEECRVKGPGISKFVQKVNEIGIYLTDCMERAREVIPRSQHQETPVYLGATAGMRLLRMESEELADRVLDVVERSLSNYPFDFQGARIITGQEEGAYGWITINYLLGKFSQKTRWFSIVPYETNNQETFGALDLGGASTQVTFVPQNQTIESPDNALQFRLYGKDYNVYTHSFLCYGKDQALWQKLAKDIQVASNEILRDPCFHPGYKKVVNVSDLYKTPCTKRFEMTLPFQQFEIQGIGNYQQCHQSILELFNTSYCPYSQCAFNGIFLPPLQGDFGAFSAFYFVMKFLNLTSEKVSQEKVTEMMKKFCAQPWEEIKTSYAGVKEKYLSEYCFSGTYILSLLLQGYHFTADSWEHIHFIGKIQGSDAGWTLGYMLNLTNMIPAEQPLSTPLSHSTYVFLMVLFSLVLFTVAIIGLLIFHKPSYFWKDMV

Human CD39-L4 = biological target: T2, Human CD39-L4 (human, UniProt O75356 25-428); assay: ELISA on coated recombinant human CD39-L4 [panel huCD39 L4]
T2 construct: Recombinant protein coated in ELISA; also called NTPDase5; ENTPD5
T2 sequence: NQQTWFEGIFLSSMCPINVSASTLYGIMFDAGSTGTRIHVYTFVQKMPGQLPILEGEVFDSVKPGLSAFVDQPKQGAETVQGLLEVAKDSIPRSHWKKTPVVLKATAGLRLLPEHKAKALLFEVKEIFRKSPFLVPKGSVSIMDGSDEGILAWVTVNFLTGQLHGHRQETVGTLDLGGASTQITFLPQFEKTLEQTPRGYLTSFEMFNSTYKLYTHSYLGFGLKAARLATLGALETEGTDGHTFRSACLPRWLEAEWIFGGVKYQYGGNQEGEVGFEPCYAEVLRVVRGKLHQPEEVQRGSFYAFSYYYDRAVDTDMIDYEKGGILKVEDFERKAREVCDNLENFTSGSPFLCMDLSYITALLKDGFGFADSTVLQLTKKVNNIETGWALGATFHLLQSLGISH
Method: (§1) Wells were washed in TBS Tween 20, and further saturated 2H at RT in TBS Blocking buffer. Dose range concentration of primary antibody was incubated in TBS blocking buffer for 2 h at RT. Wells were washed in TBS Tween 20. […] Optical density was measured on Enspire™ at OD=450.

Human CD39-L2 = biological target: T3, Human CD39-L2 (human, UniProt O75354 61-484, limits assumed); assay: ELISA on coated recombinant human CD39-L2 [panel huCD39 L2]
T3 construct: Recombinant protein coated in ELISA; also called NTPDase6; ENTPD6
T3 sequence: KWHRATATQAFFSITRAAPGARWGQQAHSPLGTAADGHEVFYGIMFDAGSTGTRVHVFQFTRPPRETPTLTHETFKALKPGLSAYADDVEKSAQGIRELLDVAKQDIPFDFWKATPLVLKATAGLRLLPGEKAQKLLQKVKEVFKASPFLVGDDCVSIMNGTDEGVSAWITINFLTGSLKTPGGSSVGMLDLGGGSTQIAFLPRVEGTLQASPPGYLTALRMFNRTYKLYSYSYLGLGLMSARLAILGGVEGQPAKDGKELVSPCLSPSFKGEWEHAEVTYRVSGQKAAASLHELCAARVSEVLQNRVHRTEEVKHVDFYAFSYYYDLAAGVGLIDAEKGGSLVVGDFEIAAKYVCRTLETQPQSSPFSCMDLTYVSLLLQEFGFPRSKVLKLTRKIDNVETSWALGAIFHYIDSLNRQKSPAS
Method: as §1

- Median : Comp-Alexa Fluor 647-A [1]: 3720
- binding result (Human CD39-L4): no binding
- binding result (Human CD39-L2): no binding
B1: antibody I-394 (antibody, human IgG1, kappa, V domains shown)
VH: EVQLQQSGPELVKPGASVKMSCKASGYTFTDYNMHWVKQSHGRTLEWIGYIVPLNGGSTFNQKFKGRATLTVNTSSRTAYMELRSLTSEDSAAYYCARGGTRFAYWGQGTLVTVSA
VL: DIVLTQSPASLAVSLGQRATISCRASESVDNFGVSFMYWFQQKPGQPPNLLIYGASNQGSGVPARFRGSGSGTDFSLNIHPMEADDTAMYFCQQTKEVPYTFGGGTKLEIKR
notes: The hybridoma-derived mouse form was used in early screening
